Target: T1, human VPS15, subunit of complexes I and II (human, UniProt Q99570 1-1358)
T1 construct: VPS15, human; expressed as HsVPS15-3xTEV-ZZ from the plasmid HsVPS34 + HsVPS15-3xTEV-ZZ; A 3xTEV site lies between VPS15 and ZZ; whether the tag was cut off is told only in Ohashi et al., 2016; The printed theoretical masses fit tag-free whole chains (my reckoning); also called HsVPS15; source: Expi293 cells, transfected, co-expressed with the other subunits, purified as a complex (method of …)
Experiment: SEC-MALS; purified, co-expressed human complex II at 0.8 mg/mL; Superose 6 10/300, 0.5 mL/min; measured 384 kDa against 386 kDa theoretical
Details: both partners purified

T1 sequence (Q99570 whole entry, one chain of several): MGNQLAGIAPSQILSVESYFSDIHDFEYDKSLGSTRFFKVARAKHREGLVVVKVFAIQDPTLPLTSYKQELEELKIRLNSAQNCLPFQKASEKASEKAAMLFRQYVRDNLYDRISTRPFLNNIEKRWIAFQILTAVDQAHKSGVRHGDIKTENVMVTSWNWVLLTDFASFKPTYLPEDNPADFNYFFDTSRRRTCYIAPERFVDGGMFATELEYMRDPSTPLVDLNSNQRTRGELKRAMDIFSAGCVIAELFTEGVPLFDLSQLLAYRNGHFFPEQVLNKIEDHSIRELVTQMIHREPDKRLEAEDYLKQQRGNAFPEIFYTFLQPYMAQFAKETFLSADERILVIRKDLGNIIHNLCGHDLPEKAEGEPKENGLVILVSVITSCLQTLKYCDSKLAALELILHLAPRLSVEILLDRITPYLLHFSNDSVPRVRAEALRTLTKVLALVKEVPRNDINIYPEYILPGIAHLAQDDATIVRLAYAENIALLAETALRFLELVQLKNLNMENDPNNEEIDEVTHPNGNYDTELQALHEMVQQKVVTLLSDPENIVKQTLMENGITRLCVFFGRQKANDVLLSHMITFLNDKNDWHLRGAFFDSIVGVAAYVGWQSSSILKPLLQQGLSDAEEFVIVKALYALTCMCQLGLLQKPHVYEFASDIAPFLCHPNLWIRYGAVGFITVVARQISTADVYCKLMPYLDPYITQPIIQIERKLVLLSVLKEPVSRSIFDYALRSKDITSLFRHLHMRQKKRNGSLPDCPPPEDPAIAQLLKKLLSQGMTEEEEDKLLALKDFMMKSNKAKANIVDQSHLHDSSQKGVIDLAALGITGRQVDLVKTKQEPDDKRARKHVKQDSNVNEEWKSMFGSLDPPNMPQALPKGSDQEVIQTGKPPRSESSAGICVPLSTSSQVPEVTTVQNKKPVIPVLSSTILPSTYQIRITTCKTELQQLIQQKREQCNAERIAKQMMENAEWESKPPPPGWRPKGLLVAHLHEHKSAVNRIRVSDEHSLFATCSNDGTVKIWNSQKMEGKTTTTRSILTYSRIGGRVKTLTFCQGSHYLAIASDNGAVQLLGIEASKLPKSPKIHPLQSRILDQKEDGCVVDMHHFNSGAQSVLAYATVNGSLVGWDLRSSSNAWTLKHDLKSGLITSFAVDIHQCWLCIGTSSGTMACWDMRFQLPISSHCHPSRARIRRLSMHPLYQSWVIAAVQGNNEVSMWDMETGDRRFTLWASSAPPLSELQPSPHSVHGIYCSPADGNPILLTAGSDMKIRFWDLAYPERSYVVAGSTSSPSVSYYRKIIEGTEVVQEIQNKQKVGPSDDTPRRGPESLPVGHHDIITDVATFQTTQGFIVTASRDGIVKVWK

stoichiometry N: 1
B1: human UVRAG, specific subunit of complex II (natural protein, UniProt Q9P2Y5 1-699, looked up)
chain: MSASASVGGPVPQPPPGPAAALPPGSAARALHVELPSQQRRLRHLRNIAARNIVNRNGHQLLDTYFTLHLCSTEKIYKEFYRSEVIKNSLNPTWRSLDFGIMPDRLDTSVSCFVVKIWGGKENIYQLLIEWKVCLDGLKYLGQQIHARNQNEIIFGLNDGYYGAPFEHKGYSNAQKTILLQVDQNCVRNSYDVFSLLRLHRAQCAIKQTQVTVQKIGKEIEEKLRLTSTSNELKKKSECLQLKILVLQNELERQKKALGREVALLHKQQIALQDKGSAFSAEHLKLQLQKESLNELRKECTAKRELFLKTNAQLTIRCRQLLSELSYIYPIDLNEHKDYFVCGVKLPNSEDFQAKDDGSIAVALGYTAHLVSMISFFLQVPLRYPIIHKGSRSTIKDNINDKLTEKEREFPLYPKGGEKLQFDYGVYLLNKNIAQLRYQHGLGTPDLRQTLPNLKNFMEHGLMVRCDRHHTSSAIPVPKRQSSIFGGADVGFSGGIPSPDKGHRKRASSENERLQYKTPPPSYNSALAQPVTTVPSMGETERKITSLSSSLDTSLDFSKENKKKGEDLVGSLNGGHANVHPSQEQGEALSGHRATVNGTLLPSEQAGSASVQLPGEFHPVSEAELCCTVEQAEEIIGLEATGFASGDQLEAFNCIPVDSAVAVECDEQVLGEFEEFSRRIYALNENVSSFRRPRRSSDK
notes: UVRAG, human; see Supplementary file 6; also called HsUVRAG; not shown: ZZ (only in pYO1018 and pYO1023)

From paper PMC7326497, “Membrane characteristics tune activities of endosomal and autophagic human VPS34 complexes” (eLife, 2020)
